Assay results from publication PMC3196243.
Like-named read-outs stand apart in the source and are kept apart here. Values belong to the substance of their own block, whether it stands above or below them.

How the values were obtained:
[1] = target: S100B (UniProt P04271); assay: NMR titration
[2] = target: S100B (UniProt P04271); assay: NMR titration; remark: listed apart in the source
[3] = target: p53 362-393 (Homo sapiens) (UniProt P04637); conditions: cited from earlier work
[4] = target: RAGE 129-336 (Homo sapiens) (UniProt Q15109); conditions: cited from earlier work
[5] = target: SIP (Homo sapiens) (UniProt Q9HB71); conditions: cited from earlier work
[6] = target: TRTK-12 TRTK-12 (Homo sapiens) (UniProt P52907); conditions: cited from earlier work
[7] = target: Myelin-associated glycoprotein (Homo sapiens) (UniProt P20916); conditions: cited from earlier work
Chain of Myelin-associated glycoprotein (Homo sapiens) (P20916 20-626): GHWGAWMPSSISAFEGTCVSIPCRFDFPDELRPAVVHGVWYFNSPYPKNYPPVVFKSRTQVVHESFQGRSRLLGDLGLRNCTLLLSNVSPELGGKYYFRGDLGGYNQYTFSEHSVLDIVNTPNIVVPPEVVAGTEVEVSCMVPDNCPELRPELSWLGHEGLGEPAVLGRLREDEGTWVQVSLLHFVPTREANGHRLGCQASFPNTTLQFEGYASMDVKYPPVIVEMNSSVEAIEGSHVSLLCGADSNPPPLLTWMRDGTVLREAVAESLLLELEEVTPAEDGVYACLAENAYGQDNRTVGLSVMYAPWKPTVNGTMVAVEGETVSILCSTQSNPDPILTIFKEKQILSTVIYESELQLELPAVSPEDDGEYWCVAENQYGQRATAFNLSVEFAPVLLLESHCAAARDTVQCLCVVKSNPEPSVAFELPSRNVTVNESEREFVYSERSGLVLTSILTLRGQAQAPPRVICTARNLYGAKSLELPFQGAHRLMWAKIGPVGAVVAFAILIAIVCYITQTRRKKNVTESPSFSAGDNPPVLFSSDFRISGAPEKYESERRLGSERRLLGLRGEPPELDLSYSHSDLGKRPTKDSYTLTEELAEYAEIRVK

Chain of S100B (from UniProt P04271) (P04271 2-92): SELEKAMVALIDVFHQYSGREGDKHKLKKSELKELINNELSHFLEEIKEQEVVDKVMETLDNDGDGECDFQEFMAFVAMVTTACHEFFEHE
Chain of S100B (UniProt P04271) (P04271 2-92): as above
Chain of S100A12 (P80511 2-92): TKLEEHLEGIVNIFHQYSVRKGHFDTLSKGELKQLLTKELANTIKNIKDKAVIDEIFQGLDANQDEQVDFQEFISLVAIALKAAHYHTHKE
Chain of RAGE 129-336 (Homo sapiens) (Q15109 129-336): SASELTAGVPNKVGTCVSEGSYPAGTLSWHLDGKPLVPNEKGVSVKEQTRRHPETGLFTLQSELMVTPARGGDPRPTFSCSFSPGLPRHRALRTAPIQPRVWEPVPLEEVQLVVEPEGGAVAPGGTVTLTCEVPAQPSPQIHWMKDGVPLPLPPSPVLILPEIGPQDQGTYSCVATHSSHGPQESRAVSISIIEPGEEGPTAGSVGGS
Chain of SIP (Homo sapiens) (Q9HB71 2-228): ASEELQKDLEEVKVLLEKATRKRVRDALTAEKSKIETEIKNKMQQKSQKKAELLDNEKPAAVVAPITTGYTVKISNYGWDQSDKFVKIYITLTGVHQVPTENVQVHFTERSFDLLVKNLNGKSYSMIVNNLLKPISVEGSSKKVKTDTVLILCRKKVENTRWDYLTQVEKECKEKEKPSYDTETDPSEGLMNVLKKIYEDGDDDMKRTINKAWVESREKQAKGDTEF
Chain of S100A2 (P29034 whole entry): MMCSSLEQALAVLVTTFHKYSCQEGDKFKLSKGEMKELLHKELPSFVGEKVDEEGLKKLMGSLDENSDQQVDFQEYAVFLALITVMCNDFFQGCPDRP
Chain of p53 362-393 (Homo sapiens) (P04637 362-393): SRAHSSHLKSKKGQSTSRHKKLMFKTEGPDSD

- Kd [1]: 98 µM
Substance: IC3-C30 (from UniProt P61169-2 316-345) (peptide)

- Kd [2]: 148 µM
- Kd [1]: 149 µM
Substance: IC3-M28 (from UniProt P61169-2 288-315) (peptide)

Substance: S100A2 (from UniProt P29034)
- Kd [3]: 106 µM

Substance: S100A12 (from UniProt P80511)
- Kd [4]: 140 µM

Substance: S100B (from UniProt P04271)
- Kd [5]: 5 µM
- Kd [6]: 0.3 µM
- Kd [7]: 7 µM
